Where no end group is shown, it is not given here.
Key:
Monoclonal antibody 3E7 [1] = assay: solution RIA, displacement of [125I]b-endorphin from mAb 3E7
Monoclonal antibody 3E7 [2] = assay: solution RIA, 30 pM tracer, 18 hr incubation
3E7 antibody = assay: Solution radioimmunoassay, inhibition of [125I]b-endorphin binding to mAb 3E7; conditions: for IC50: geometric mean, 30 pM [125I]b-endorphin, 20% tracer bound, 18 hr. incubation, 0.25 μg/ml 3E7; for Affinity Relative to YGGFL (SEQ ID NO: 125): relative to YGGFL = 1
Protocol: The peptides were synthesized according to well known protocols, as described in, for example, Merrifield, Science 232:341-347 (1986), incorporated by reference herein. A solution radioimmunoassay was used to estimate the binding affinities of peptides for mAb 3E7. Solution radioimmunoassay using [^125I]b-endorphin (20,000 cpm) and purified 3E7 antibody (0.25 μg/ml) was conducted as described by Meo et al., supra, with the exception that the final volume was 150 μl. Antibody-bound and free [^125I]b-endorphin were separated by addition of activated charcoal followed by centrifugation, as described in Ghazarassian et al., Life Sciences 27:75-86 (1980). Antibody-bound [^125I]b-endorphin in the supernatant was measured in a gamma counter. […] J. Physiol. 235:E97-E102 (1978).

Monoclonal antibody 3E7 [3] = conditions: Meo et al., Herz et al., Gramsch et al.; cited from earlier work
Monoclonal antibody 3E7 [4] = assay: binding experiments with mAb 3E7 and [3H]YGGFL, room temperature

Molecule | Affinity Relative to YGGFL (Monoclonal antibody 3E7 [1]) | IC50 (3E7 antibody) [nM] | Affinity Relative to YGGFL (SEQ ID NO: 125) (3E7 antibody) | IC50 (Monoclonal antibody 3E7 [1]) [nM] | further results
GGF (peptide) | < 7.1e-06 | – | – | – | –
[125I-tyr28]b-endorphin (from UniProt P01189 237-267) (peptide) | – | – | – | – | tracer bound (Monoclonal antibody 3E7 [2]): 20%
YGGF [Tyr-Gly-Gly-Phe, reference compound] | – | 190 | 0.037 | – | –
YAGFAQ [YAGFAQ] | – | 8300 | 0.00086 | – | –
YGGWAG [YGGWAG] | – | 7800 | 0.00091 | – | –
YGPFWS [YGPFWS] | – | 1900 | 0.0037 | – | –
YGGFM: met-enkephalin, natural opioid peptide | – | – | – | – | binding to antibody 3E7 (Monoclonal antibody 3E7 [3]): binds tightly
GFL (peptide) | < 7.1e-06 | – | – | – | –
YGGFL [Tyr-Gly-Gly-Phe-Leu, reference compound] | – | 7.1 | 1 | – | binding to antibody 3E7 (Monoclonal antibody 3E7 [3]): binds tightly
YGGFPD [YGGFPD] | – | 2300 | 0.0031 | – | –
YGFWGM [YGFWGM] | – | 350 | 0.020 | – | –
YGNWTY [YGNWTY] | – | 7800 | 0.00091 | – | –
YGG (peptide) | < 7.1e-06 | – | – | – | –
YAGFAQ | 0.00086 | – | – | 8300 | –
YGGFPD | 0.0031 | – | – | 2300 | –
YGPFWS | 0.0037 | – | – | 1900 | –
YGGF | 0.037 | – | – | 190 | –
YGNWTY | 0.00091 | – | – | 7800 | –
GGFL | < 7.1e-06 | – | – | – | –
YGGWAG | 0.00091 | – | – | 7800 | –
YGFWGM | 0.02 | – | – | 350 | –
YGGFL | 1 | – | – | 7.1 | dissociation t1/2 (Monoclonal antibody 3E7 [4]): 45 s
